Experimental data reported in publication PMC11372007, “Characterization of a GDS(L)-like hydrolase from Pleurotus sapidus with an unusual SGNH motif” (AMB Express, 2024).

Key:
purified protein [1] = substrate: CCCCCCCC(=O)Oc1ccc([N+](=O)[O-])cc1; test: purified protein; type: biochemical, Pleurotus sapidus; conditions: apparent constant, esterase assay: potassium phosphate pH 7.0, 0.5% v/v Triton X-100, 30 °C
purified protein [2] = substrate: CCCC(=O)Oc1ccc([N+](=O)[O-])cc1; test: purified protein; type: biochemical, Pleurotus sapidus; conditions: apparent constant, esterase assay: potassium phosphate pH 7.0, 0.5% v/v Triton X-100, 30 °C

B1: PSA_Lip (Pleurotus sapidus) (protein)
chain: AVLPRDAPNGVHLAVDPKCGVAGGRFGDVNIGLKPLTSYEHIVAFGDSWTDGGAHNGEPLPPPVLTPPNPRAGGRASNGPVWVEKLASAAGATLLDFAEIGAVTDKNIWPSSLLPTTASSANDFVGQAHNYINQRNGFDPETTLYTIFLGVGDFDLSQQTGTDNLYTVAGAIVYTILELTSYPTYAKNIIVVDNYGRGIYETPSGDAFKEGIYAGLNTLHTRYGTSVGFVDLKTLWDGVLGSSPGYEAFGYTSKAACLPSSTSTSGACANPESTFYWLPGIPSAATHGLIADYVEKVLTTC
notes: no tag told; semi-native gel band ~118 kDa
Purified protein [1]
  Km: 330 µM
  Vmax: 122 µM/min
  kcat: 2.19 s⁻¹
  kcat/Km: 6560 M⁻¹ s⁻¹
Purified protein [2]
  Km: 1220 µM
  Vmax: 109 µM/min
  kcat: 1.95 s⁻¹
  kcat/Km: 1610 M⁻¹ s⁻¹
